According to article PMC4041364:

Legend:
Neutrophil elastase (NE) [1] = target: T1, Neutrophil elastase (NE) (human, UniProt P08246 30-267); assay: fluorescence polarization
Granzyme B (GzmB) [2] = target: T2, Granzyme B (GzmB) (human, UniProt P10144 21-247); assay: fluorescence polarization
Granzyme A (GzmA) [3] = target: T3, Granzyme A (GzmA) (human, UniProt P12544 29-262); assay: fluorescence polarization
T3 sequence: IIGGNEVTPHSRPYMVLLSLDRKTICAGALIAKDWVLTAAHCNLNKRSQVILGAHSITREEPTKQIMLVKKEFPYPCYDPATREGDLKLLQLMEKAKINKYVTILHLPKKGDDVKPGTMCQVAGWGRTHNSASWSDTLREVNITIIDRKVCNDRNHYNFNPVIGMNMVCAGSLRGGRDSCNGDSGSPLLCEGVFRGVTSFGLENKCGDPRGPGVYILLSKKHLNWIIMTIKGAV

Cathepsin G (CATG) [4] = target: T4, Cathepsin G (CATG) (human, UniProt P08311 21-244); assay: fluorescence polarization
T4 sequence: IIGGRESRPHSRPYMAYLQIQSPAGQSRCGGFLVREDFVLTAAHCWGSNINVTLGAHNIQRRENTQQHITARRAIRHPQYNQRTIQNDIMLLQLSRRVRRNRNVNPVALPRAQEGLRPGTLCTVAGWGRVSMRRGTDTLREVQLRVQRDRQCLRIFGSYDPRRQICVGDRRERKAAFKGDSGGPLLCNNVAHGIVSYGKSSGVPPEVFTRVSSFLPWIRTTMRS

HuR (human antigen R) = HuR (human antigen R) (UniProt Q15717 1-326); assay: fluorescence polarization
Neutrophil elastase (NE) [5] = target: T1, Neutrophil elastase (NE); assay: pull-down
Granzyme B (GzmB) [6] = target: T2, Granzyme B (GzmB); assay: pull-down
Pancreatic elastase (PE) = Pancreatic elastase (PE) (porcine, UniProt P00772 27-266); assay: pull-down
Granzyme A (GzmA) [7] = target: T3, Granzyme A (GzmA); assay: pull-down
Cathepsin G (CATG) [8] = target: T4, Cathepsin G (CATG); assay: pull-down
Histone H1 = Histone H1 (UniProt P07305 1-194); assay: fluorescence polarization
Sequence of Histone H1 (P07305 whole entry): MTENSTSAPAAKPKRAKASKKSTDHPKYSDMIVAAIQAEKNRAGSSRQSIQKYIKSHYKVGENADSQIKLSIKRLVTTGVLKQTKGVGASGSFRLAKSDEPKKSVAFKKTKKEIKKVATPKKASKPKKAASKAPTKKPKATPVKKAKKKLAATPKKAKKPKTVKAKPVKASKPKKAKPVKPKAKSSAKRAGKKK

T1 sequence (P08246 30-267): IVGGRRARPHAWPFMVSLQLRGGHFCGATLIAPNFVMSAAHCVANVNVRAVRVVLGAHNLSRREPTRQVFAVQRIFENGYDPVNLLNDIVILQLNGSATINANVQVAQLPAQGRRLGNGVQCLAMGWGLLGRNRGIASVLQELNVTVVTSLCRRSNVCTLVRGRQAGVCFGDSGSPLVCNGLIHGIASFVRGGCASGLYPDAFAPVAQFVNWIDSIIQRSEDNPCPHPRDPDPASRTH
Sequence of HuR (human antigen R) (Q15717 whole entry): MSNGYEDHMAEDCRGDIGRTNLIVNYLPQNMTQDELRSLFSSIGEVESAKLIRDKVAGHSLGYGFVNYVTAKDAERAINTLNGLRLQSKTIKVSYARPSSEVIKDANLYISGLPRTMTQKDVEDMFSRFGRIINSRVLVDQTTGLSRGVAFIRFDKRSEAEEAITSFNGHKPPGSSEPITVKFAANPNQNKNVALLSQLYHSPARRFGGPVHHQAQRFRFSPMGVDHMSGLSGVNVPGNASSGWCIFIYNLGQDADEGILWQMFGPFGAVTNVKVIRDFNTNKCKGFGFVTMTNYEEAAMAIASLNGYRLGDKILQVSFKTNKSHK
T2 sequence (P10144 21-247): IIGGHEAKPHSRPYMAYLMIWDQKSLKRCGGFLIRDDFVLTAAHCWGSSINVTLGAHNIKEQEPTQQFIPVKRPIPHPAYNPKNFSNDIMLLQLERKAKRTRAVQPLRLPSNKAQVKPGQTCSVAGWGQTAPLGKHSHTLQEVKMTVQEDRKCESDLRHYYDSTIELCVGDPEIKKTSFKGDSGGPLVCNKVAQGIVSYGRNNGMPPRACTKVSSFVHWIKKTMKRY
Sequence of Pancreatic elastase (PE) (P00772 27-266): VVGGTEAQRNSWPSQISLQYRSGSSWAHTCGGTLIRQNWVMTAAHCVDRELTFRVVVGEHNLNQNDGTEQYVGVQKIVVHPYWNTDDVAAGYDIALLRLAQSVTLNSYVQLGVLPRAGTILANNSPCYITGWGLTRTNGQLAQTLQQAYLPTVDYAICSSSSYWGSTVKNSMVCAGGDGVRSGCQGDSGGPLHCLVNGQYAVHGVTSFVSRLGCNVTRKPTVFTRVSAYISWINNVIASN

Binder | Kd (Neutrophil elastase (NE) [1]) [nM] | Kd (Granzyme B (GzmB) [2]) [nM] | Kd (Granzyme A (GzmA) [3]) [nM] | Kd (Cathepsin G (CATG) [4]) [nM] | Kd (HuR (human antigen R)) [nM] | binding result (Neutrophil elastase (NE) [5]) | binding result (Granzyme B (GzmB) [6]) | binding result (Pancreatic elastase (PE)) | binding result (Granzyme A (GzmA) [7]) | binding result (Cathepsin G (CATG) [8]) | Kd (Histone H1) [nM]
CCCAAGCUUAUUUAUUUAUUUAUUGCAGGUC (ssRNA) [AU RNA] | 602 | 651 | 401 | 165 | 492 | – | – | – | – | – | –
TTTTTTTTTTTTTTTTTTTTTTTTT (ssDNA) [Oligo(dT)25 beads] | – | – | – | – | – | binds | binds | no binding | binds | binds | –
UUUUUUUUUUUUUUUUUUUUUUUUUUUUUU (ssRNA) [rU(30)] | – | 159 | 232 | – | 121 | – | – | – | – | – | –
TCTGTGAGTTGAACGCACACATCACAAAGGAG (ssDNA) [BB94 ssDNA] | 272 | 35 | 122 | 22 | – | – | – | – | – | – | 10
BB94 dsDNA (dsDNA) DNA 1: TCTGTGAGTTGAACGCACACATCACAAAGGAG DNA 2: CTCCTTTGTGATGTGTGCGTTCAACTCACAGA | 607 | 161 | 120 | 35 | – | – | – | – | – | – | 9
UCUGUGAGUUGAACGCACACAUCACAAAGGA (ssRNA) [BB94 RNA] | – | 480 | 1600 | – | 4800 | – | – | – | – | – | –
TTTTTTTTTTTTTTTTTTTTTTTTTTTTTT (ssDNA) [dT(30)] | – | 45 | 48 | – | – | – | – | – | – | – | –
